The target of test [1] is Factor VIIIa (recombinant FVIII, Kogenate FS, activated with alpha-thrombin) (UniProt P00451). As to the kind of experiment: apparent KD (KD-app): FX activation rate (Spectrafluor FXa fluorescence) vs FVIIIa titration, PC/PS vesicles, Ca2+; indirect functional assay.
Test [2] shares this target. In words: functional KD-app: FVIIIa titrated (0-400 nM) on 2 pM FIXa, PC/PS vesicles, 500 nM FX, fluorogenic FXa substrate.
For test [3], the target named is plasma purified human AT-III (antithrombin III), in complex with low molecular weight heparin (human) (UniProt P01008). As to the kind of experiment: K0.5: AT-III conc. for 50% inhibition of FIXa cleavage of Pefafluor FIXa; AT-III/LMWH, 1 uM LMWH, 1 min.

Experimental findings from patent US20210230570A1 are described below.

Chain of Factor VIIIa (recombinant FVIII, Kogenate FS, activated with alpha-thrombin) (P00451 20-391, chain 1 of 3): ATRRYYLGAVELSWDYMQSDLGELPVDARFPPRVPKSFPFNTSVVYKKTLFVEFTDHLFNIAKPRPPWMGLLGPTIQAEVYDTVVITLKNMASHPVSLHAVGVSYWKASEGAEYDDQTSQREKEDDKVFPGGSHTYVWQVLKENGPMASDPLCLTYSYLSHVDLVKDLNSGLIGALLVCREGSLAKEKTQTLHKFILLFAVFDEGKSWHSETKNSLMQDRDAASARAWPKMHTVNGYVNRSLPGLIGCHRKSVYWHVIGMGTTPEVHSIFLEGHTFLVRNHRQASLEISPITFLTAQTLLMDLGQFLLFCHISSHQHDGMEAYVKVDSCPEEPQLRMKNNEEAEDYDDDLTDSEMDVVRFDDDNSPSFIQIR
Chain of Factor VIIIa (recombinant FVIII, Kogenate FS, activated with alpha-thrombin) (P00451 392-759, chain 2 of 3): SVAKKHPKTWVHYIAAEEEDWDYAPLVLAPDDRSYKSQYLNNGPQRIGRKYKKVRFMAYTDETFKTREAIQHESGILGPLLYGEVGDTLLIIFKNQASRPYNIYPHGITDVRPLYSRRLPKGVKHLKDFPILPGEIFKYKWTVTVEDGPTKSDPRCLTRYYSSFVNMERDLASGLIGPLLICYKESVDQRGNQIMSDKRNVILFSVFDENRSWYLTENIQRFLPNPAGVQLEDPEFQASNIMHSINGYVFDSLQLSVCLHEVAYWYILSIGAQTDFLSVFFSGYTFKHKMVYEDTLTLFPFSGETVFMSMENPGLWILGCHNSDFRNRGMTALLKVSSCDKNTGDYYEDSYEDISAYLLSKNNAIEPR
Chain of Factor VIIIa (recombinant FVIII, Kogenate FS, activated with alpha-thrombin) (P00451 1709-2351, chain 3 of 3): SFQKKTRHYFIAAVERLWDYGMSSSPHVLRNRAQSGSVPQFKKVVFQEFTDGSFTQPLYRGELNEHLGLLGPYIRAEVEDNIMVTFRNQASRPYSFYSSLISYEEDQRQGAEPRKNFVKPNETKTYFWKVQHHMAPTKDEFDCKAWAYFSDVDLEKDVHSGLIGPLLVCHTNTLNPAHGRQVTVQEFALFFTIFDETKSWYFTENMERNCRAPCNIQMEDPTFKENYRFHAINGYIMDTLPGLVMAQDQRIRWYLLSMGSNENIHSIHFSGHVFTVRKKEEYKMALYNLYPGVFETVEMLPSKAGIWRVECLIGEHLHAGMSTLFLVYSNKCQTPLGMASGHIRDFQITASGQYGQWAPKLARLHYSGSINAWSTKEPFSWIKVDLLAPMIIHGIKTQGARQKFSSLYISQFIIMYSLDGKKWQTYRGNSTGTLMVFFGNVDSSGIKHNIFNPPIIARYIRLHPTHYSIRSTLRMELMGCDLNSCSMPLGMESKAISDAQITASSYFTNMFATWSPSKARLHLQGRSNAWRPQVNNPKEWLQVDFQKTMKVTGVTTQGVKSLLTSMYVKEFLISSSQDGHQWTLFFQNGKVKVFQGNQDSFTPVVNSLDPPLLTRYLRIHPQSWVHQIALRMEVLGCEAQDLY
Chain of plasma purified human AT-III (antithrombin III), in complex with low molecular weight heparin (human) (P01008 33-464, one chain of several): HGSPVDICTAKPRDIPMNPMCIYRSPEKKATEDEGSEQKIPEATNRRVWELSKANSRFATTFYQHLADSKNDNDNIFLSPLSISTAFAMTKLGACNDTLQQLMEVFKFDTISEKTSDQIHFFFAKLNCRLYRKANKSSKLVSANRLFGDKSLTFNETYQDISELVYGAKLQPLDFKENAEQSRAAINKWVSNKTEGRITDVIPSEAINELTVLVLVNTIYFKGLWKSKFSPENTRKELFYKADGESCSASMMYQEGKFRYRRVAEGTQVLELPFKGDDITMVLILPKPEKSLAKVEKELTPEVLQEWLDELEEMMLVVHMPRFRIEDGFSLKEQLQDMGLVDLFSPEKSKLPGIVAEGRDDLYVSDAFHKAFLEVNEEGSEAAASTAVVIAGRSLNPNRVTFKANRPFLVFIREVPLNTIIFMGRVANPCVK

As for “BeneFIX Coagulation FIX (T148A), activated (FIXa) (from UniProt P00740 47-191; P00740 227-461) (enzyme)”, the Kd in test [1] is 90.2 nM.

As to “Catalyst Biosciences WT FIXa (recombinant wild-type FIXa) (from UniProt P00740 47-191; P00740 227-461) (enzyme)”, the Kd in test [1] is 95.5 nM.

As for “FIXa variant A204M (from UniProt P00740 47-191; P00740 227-461) (enzyme)”, the Kd in test [1] was found to be 60.6 nM.

Regarding “FIXa variant A262S (from UniProt P00740 47-191; P00740 227-461) (enzyme)”, the Kd in test [1] turned out to be 94.1 nM.

Turning to “FIXa variant D104N/K106S/I251S (from UniProt P00740 47-191; P00740 227-461) (enzyme)”, the Kd in test [1] was determined as 306 nM.

Turning to “FIXa variant D104N/K106S/R318Y/R338E/E410N (from UniProt P00740 47-191; P00740 227-461) (enzyme)”, in test [1], the Kd was 12.4 nM.

For “FIXa variant D104N/K106S/Y155F/R318Y/R338E/R403E/E410N (from UniProt P00740 47-191; P00740 227-461) (enzyme)”, in test [1], the Kd stood at 61.6 nM.

With “FIXa variant D203Y (from UniProt P00740 47-191; P00740 227-461) (enzyme)”, in test [1], the Kd amounted to 77.4 nM.

For “FIXa variant E239N (from UniProt P00740 47-191; P00740 227-461) (enzyme)”, the Kd in test [1] turned out to be 77.3 nM.

Consider “FIXa variant E410N (from UniProt P00740 47-191; P00740 227-461) (enzyme)”, for which, in test [1], the Kd is 74.2 nM.

On to “FIXa variant E410S (from UniProt P00740 47-191; P00740 227-461) (enzyme)”, for which, in test [1], the Kd came out at 99.6 nM.

On to “FIXa variant H257E (from UniProt P00740 47-191; P00740 227-461) (enzyme)”, for which, in test [1], the Kd came to 81.3 nM.

On to “FIXa variant K293A (from UniProt P00740 47-191; P00740 227-461) (enzyme)”, for which the Kd in test [1] is 86.6 nM.

In the case of “FIXa variant K316N (from UniProt P00740 47-191; P00740 227-461) (enzyme)”, in test [1], the Kd amounted to 66.4 nM.

Consider “FIXa variant K400A (from UniProt P00740 47-191; P00740 227-461) (enzyme)”, for which, in test [1], the Kd came out at 98.9 nM.

Take “FIXa variant K400A/R403A (from UniProt P00740 47-191; P00740 227-461) (enzyme)”: the Kd in test [1] amounted to 130 nM.

As to “FIXa variant K400E/R403E (from UniProt P00740 47-191; P00740 227-461) (enzyme)”, in test [1], the Kd is 298 nM.

As to “FIXa variant N346D (from UniProt P00740 47-191; P00740 227-461) (enzyme)”, the Kd in test [1] is 126 nM.

As to “FIXa variant R312A (from UniProt P00740 47-191; P00740 227-461) (enzyme)”, the Kd in test [1] turned out to be 52.9 nM.

“FIXa variant R312L (from UniProt P00740 47-191; P00740 227-461) (enzyme)”: the Kd in test [1] is 68.9 nM.

“FIXa variant R312Q (from UniProt P00740 47-191; P00740 227-461) (enzyme)”: the Kd in test [1] was 45.2 nM.

“FIXa variant R312Y (from UniProt P00740 47-191; P00740 227-461) (enzyme)”: the Kd in test [1] stood at 85.2 nM.

“FIXa variant R318E (from UniProt P00740 47-191; P00740 227-461) (enzyme)”: the Kd in test [1] is 67 nM.

Consider “FIXa variant R318Y (from UniProt P00740 47-191; P00740 227-461) (enzyme)”, for which the Kd in test [1] was 192 nM.

As for “FIXa variant R318Y/R338E/E410N (from UniProt P00740 47-191; P00740 227-461) (enzyme)”, in test [1], the Kd is 7.7 nM.

Consider “FIXa variant R318Y/R338E/R403E (from UniProt P00740 47-191; P00740 227-461) (enzyme)”, for which, in test [1], the Kd is 340 nM.

“FIXa variant R318Y/R338E/R403E/E410N (from UniProt P00740 47-191; P00740 227-461) (enzyme)”: in test [1], the Kd came out at 47 nM.

Take “FIXa variant R338E (from UniProt P00740 47-191; P00740 227-461) (enzyme)”: the Kd in test [1] was 43 nM.

Turning to “FIXa variant R338E/E410N (from UniProt P00740 47-191; P00740 227-461) (enzyme)”, the Kd in test [1] was 4.1 nM.

For “FIXa variant R338E/R403E (from UniProt P00740 47-191; P00740 227-461) (enzyme)”, the Kd in test [1] was 183 nM.

As to “FIXa variant R338E/R403E/E410N (from UniProt P00740 47-191; P00740 227-461) (enzyme)”, in test [1], the Kd was 54.9 nM.

On to “FIXa variant R403E (from UniProt P00740 47-191; P00740 227-461) (enzyme)”, for which the Kd in test [1] is 654 nM.

“FIXa variant R403E/E410N (from UniProt P00740 47-191; P00740 227-461) (enzyme)”: the Kd in test [1] was 910 nM.

For “FIXa variant S319N/L321S (from UniProt P00740 47-191; P00740 227-461) (enzyme)”, the Kd in test [1] is 52.4 nM.

In the case of “FIXa variant T148A (from UniProt P00740 47-191; P00740 227-461) (enzyme)”, the Kd in test [1] came to 79.7 nM.

“FIXa variant T241N/H243S (from UniProt P00740 47-191; P00740 227-461) (enzyme)”: the Kd in test [1] worked out at 75.5 nM.

For the substance “FIXa variant V202Y (from UniProt P00740 47-191; P00740 227-461) (enzyme)”, in test [1], the Kd was 61.5 nM.

“FIXa-K228N/K247N/N249S/R318Y/R338E/T343R/E410N (from UniProt P00740 47-191; P00740 227-461) (enzyme)”: the Kd in test [2] was 7.8 nM.

For the substance “FIXa-K228N/K247N/N249S/R318Y/R338E/T343R/R403E/E410N (from UniProt P00740 47-191; P00740 227-461) (enzyme)”, in test [2], the Kd was determined as 29.1 nM.

“FIXa-K228N/R318Y/R338E/T343R/R403E/E410N (from UniProt P00740 47-191; P00740 227-461) (enzyme)”: the Kd in test [2] came to 17.5 nM.

Regarding “FIXa-K247N/N249S/R318Y/R338E/T343R (from UniProt P00740 47-191; P00740 227-461) (enzyme)”, the Kd in test [2] stood at 14.7 nM.

Regarding “FIXa-R318Y/R338E/T343R (from UniProt P00740 47-191; P00740 227-461) (enzyme)”, the Kd in test [2] was 9.8 nM.

As to “FIXa-R318Y/R338E/T343R/E410N (from UniProt P00740 47-191; P00740 227-461) (enzyme)”, the Kd in test [2] is 6.1 nM.

Turning to “FIXa-R318Y/R338E/T343R/R403E/E410S (from UniProt P00740 47-191; P00740 227-461) (enzyme)”, the Kd in test [2] is 23.2 nM.

For the substance “FIXa-R318Y/T343R/R403E/E410N (from UniProt P00740 47-191; P00740 227-461) (enzyme)”, the Kd in test [2] turned out to be 84.1 nM.

Consider “FIXa-R338E/T343R/E410N (from UniProt P00740 47-191; P00740 227-461) (enzyme)”, for which the Kd in test [2] came out at 7.5 nM.

For “FIXa-R338E/T343R/R403E (from UniProt P00740 47-191; P00740 227-461) (enzyme)”, the Kd in test [2] is 55 nM.

For “FIXa-R338E/T343R/R403E/E410N (from UniProt P00740 47-191; P00740 227-461) (enzyme)”, the Kd in test [2] was found to be 29.4 nM.

On to “FIXa-Y155F/K228N/K247N/N249S/R318Y/R338E/T343R/R403E/E410N (from UniProt P00740 47-191; P00740 227-461) (enzyme)”, for which the Kd in test [2] was determined as 37 nM.

With “FIXa-Y155F/K247N/N249S/R318Y/R338E/T343R/E410N (from UniProt P00740 47-191; P00740 227-461) (enzyme)”, the Kd in test [2] turned out to be 13.9 nM.

On to “FIXa-Y155F/K247N/N249S/R318Y/R338E/T343R/R403E/E410N (from UniProt P00740 47-191; P00740 227-461) (enzyme)”, for which the Kd in test [2] turned out to be 15.3 nM.

In the case of “FIXa-Y155F/K247N/N249S/R338E/E410N (from UniProt P00740 47-191; P00740 227-461) (enzyme)”, the Kd in test [2] was found to be 24.9 nM.

For the substance “FIXa-Y155F/K247N/N249S/R338E/T343R (from UniProt P00740 47-191; P00740 227-461) (enzyme)”, in test [2], the Kd stood at 15.4 nM.

Consider “FIXa-Y155F/R318Y/R338E/T343R (from UniProt P00740 47-191; P00740 227-461) (enzyme)”, for which the Kd in test [2] was found to be 8.4 nM.

Regarding “FIXa-Y155F/R318Y/R338E/T343R/E410N (from UniProt P00740 47-191; P00740 227-461) (enzyme)”, the Kd in test [2] was found to be 7.4 nM.

Regarding “FIXa-Y155F/R318Y/T343R/E410N (from UniProt P00740 47-191; P00740 227-461) (enzyme)”, in test [2], the Kd is 38 nM.

For the substance “FIXa-Y155F/R338E/T343R/E410N (from UniProt P00740 47-191; P00740 227-461) (enzyme)”, the Kd in test [2] was determined as 8.5 nM.

Turning to “FIXa-Y155F/R338E/T343R/R403E (from UniProt P00740 47-191; P00740 227-461) (enzyme)”, the Kd in test [2] is 72.1 nM.

As for “FIXa-Y155F/R338E/T343R/R403E/E410N (from UniProt P00740 47-191; P00740 227-461) (enzyme)”, the Kd in test [2] was determined as 28.5 nM.

In the case of “Plasma Purified FIXa (from UniProt P00740 47-191; P00740 227-461) (enzyme)”, the IC50 in test [3] turned out to be 20.2 nM.
